In patent US20190177366A1:
Each block holds one binder with its values, some of them ahead of it. Square brackets hold non-standard residues; d marks the D form. * marks the point of attachment. hArg = N=C(N)NCCCC[C@H](N)C(=O)O; Pentanoyl = CCCCC(=O)*

Molecular target: PCSK9Δhelix (human) (UniProt Q8NBP7)
Test: TR-FRET competition, Ab20 as competitor

Sequence of PCSK9Δhelix (human) (Q8NBP7 31-152 limits assumed, stated change not applied, chain 1 of 2): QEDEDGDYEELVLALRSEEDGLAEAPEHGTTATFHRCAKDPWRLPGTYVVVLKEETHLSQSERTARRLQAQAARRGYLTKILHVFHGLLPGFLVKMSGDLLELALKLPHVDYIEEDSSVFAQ
Sequence of PCSK9Δhelix (human) (Q8NBP7 other isoform, or with tags, fused parts or gaps mutant limits assumed, chain 2 of 2): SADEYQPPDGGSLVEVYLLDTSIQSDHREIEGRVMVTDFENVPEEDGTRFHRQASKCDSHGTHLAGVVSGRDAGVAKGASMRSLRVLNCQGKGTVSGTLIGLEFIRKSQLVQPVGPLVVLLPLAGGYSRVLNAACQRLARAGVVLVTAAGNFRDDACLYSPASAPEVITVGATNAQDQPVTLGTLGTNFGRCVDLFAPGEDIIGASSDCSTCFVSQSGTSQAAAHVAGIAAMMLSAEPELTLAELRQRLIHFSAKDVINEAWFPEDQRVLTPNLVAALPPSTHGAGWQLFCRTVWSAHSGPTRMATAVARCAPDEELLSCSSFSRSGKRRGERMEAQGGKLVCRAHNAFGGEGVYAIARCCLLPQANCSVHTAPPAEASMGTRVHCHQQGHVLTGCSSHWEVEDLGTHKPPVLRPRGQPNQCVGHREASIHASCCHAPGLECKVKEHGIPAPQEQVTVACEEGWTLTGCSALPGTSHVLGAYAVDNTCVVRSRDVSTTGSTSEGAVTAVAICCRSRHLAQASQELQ

IC50: < 10 µM
B1: Compound 111 (peptide)
peptide: Pentanoyl-WNLVRIGLLR-NH2
SMILES: CCCCC(=O)N[C@@H](Cc1c[nH]c2ccccc12)C(=O)N[C@@H](CC(N)=O)C(=O)N[C@@H](CC(C)C)C(=O)N[C@H](C(=O)N[C@@H](CCCNC(=N)N)C(=O)N[C@H](C(=O)NCC(=O)N[C@@H](CC(C)C)C(=O)N[C@@H](CC(C)C)C(=O)N[C@@H](CCCNC(=N)N)C(N)=O)[C@@H](C)CC)C(C)C

fold increase of inhibition against the arginine peptide (Compound 112): 5 fold
B2: Compound 118 (peptide)
peptide: Pentanoyl-WNLV[hArg]IGLTR-NH2
SMILES: CCCCC(=O)N[C@@H](Cc1c[nH]c2ccccc12)C(=O)N[C@@H](CC(N)=O)C(=O)N[C@@H](CC(C)C)C(=O)N[C@H](C(=O)N[C@@H](CCCCNC(=N)N)C(=O)N[C@H](C(=O)NCC(=O)N[C@@H](CC(C)C)C(=O)N[C@H](C(=O)N[C@@H](CCCNC(=N)N)C(N)=O)[C@@H](C)O)[C@@H](C)CC)C(C)C
